# In the nanobody polyreactivity screen of Harvey et al. (2022):
# Assay: yeast display, Sf9 membrane polyspecificity reagent, FACS + sequencing; frameworks hold sequencing errors
# Outline: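 Nanobodies came from a synthetic yeast display library in Saccharomyces cerevisiae BJ5465, induced with galactose for 36–48 hours and stained for 1 hour at 4 °C with 10% biotinylated, detergent-solubilized Sf9 membrane reagent. Cells were enriched on streptavidin microbeads and then FACS-sorted, with low and high (top ~1%) gates set on anti-HA fluorescence for expression and streptavidin fluorescence for reagent binding. Each polyreactivity label reflects the gate a clone came from. Genes were amplified by colony PCR, sequenced by MiSeq 2 × 250 and filtered by CDR length.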
row,Sequence,polyreactivity (PSR sort gate)
1,QVQLVESGGGLVQAGGRLRLSCAASGSTFKSYVMGGSRQAPGKERELVAAISSGDSTYYADSVKGRFTISRDNAKNTVNLQMNSLKPEDTAVYYCAADPGYTVEPWEDDYWGQGTQVTVSS,low polyreactivity
2,QVQLVESGGGLVQAGGRLRLSCAASGSTFPTNVMGWYRQAPGKERELVAAITKRGSITYYADSVKGRFTISRDNAKNTVYLQMNSLKPEDTAVYYCAARKVAVRGYGYWGQGTQVTVSS,high polyreactivity
3,QVQLVESGGGLVQAGGRLRLSCAASGSTFRPYAMGWYRQAPGKERELVAAITFNGDTYADSVKGRFTISRDNAKNTVYLQMNSLKPEDTAVYYCAARKWYYYLRPWTSVGGYYWGQGTQVTVSS,high polyreactivity
4,QVQLVESGGGLVQAGGRLRLSCAASGSTFSRYAMGWYRQAPGKERELVAAISWSGGITYYADSVKGRFTISRDNAKNTVYLQMNSLKPEDTAVYYCAARSRSWSGERGYWGQGTQVTVSS,high polyreactivity
5,QVQLVESGGGLVQAGGRLRLSCAASGSTFVGNAMGWYRQAPGKERELVAAIRKSGGRTYYADSVKGRFTISRDNAKNTVYLQMNSLKPEDTEVYYCAVDRLLYYLIYYRAGVEGGYWGQGTQVTVSS,high polyreactivity
6,QVQLVESGGGLVQAGGRLRLSCAASGSTFVYNAMGWYRPAPGKERELVAAISRSGGRTYYADSVKGRFTISRDNAKNSVYLQMNSLKPEDTAVYYCAVLLRGIEYDYWGQGTQVTVSS,high polyreactivity
7,QVQLVESGGGLVQAGGRLRLSCAASGSTFYLNAMGWYRPAHGKERELVAAITRIGGSTYYADSVKGRFTISRDNAKNTVYLQMYSLTPEDTAVYYCAKDYGQARHDRYGYWGAGTQVTVSS,low polyreactivity
8,QVQLVESGGGLVQAGGRLRLSCAASGSTFYLNAMGWYRQAPGQERELVAAINGGGSTNYADSVKGRFTISRDNAKNTVYLQRNSLKPEDTAVYYCAAETSYANRDRFDYWGQGTQVTVSS,low polyreactivity
9,QVQLVESGGGLVQAGGRLRLSCAASGSTLDTYAMGWYRQAPGKERELVAGITWSGGSTYYADSVKGRFTISRDNAKNTVYLQMNSLKPEDTAVYYCAAYSPYGPRYDYWGQGTQVTVSS,low polyreactivity
10,QVQLVESGGGLVQAGGRLRLSCAASGSTLGYYTMGWYRQAPGKERELVAANTRSGGSTYYADSVKGRFTISRDNAKNTVYLQMNSLKPEDTAVYYCAAAWTRFRIYDYWGQVTQVTVSS,high polyreactivity
11,QVQLVESGGGLVQAGGRLRLSCAASGSTLSANAMGWYSPAPGKERELVAAISRRSGGTYYADSVKGRFTISRDNAKNSVYLQMNSLKPEDTAVYYCIKVLKDPHTWGWVDYDYCGQGTQVTVSS,high polyreactivity
12,QVQLVESGGGLVQAGGRLRLSCAASGSTLYPNAMGWSRQAPGKDRELVAAISSGSSTYADSVKGRFTISRDNAKNTVYLQMNSLKPADTAVYYCNADAPIHYDYWGQGTQVTVSS,low polyreactivity
13,QVQLVESGGGLVQAGGRLRLSCAASGYIFKSYVMGWYRQAPGKERELVAAITWSGGSTYYADSVKGRFTISRDNAKNTVYLQMNSLKPEDTAVYYCAAYPRRYRTTYDYWGQGTQVTVSS,high polyreactivity
14,QVQLVESGGGLVQAGGRLRLSCAASGYIFYYNAIGWYRQAPGKERELVAAITSDDSTYYADSVKGRFTISRDNAKNTVYLQMNSLKPEDTAVYYCNAVRYGHWYDYWGQGTQVTVSS,low polyreactivity
15,QVQLVESGGGLVQAGGRLRLSCAASGYTFEGYAMGWDRQAPGKERELVAAISRSGGRRYYADSVKGRFTISRDNAKNTVYLQMNSLKPEDTAVYYWAAGGYYQRTRGYWGQGTQVTVSS,high polyreactivity
16,QVQLVESGGGLVQAGGRLRLSCADSGFTFDANAMGWYRQAPGKEPELVAAISLSDGSTYYADSVKGRFTISRDNAKNTVYLQMNSLKPEDTAVYYCNAERFGSGLAWLLFDYWGQGTQVTVSS,low polyreactivity
17,QVQLVESGGGLVQAGGRLRLSCADSGRTFPLYVMGWYRQAPGKERELVAAISARGGSTYYADSVKGRFTISRDNAKNTVYLQMNSLKPEDTAVYYCATLVTNGRYDSWGQGTQVTVSS,high polyreactivity
18,QVQLVESGGGLVQAGGRLRLSCAPSGLIFQHNSMGWYRKATGKERELVASITWDGGSTYYADSVKGRFTISRDNAKNTVYLQMNSLKPEDTAVYYCAARFDSFWVEYDYWGQGTQVTVSS,low polyreactivity
19,QVQLVESGGGLVQAGGRLRLSCDASGITFISNTMGWSRQAPGKERELVAAISWTGGSTYYADSVKGRFTISRDNAKNTVYLQMNSQKPEDTAVYYCNAVRYYVYSTQYDYWGEGTQVTVSS,high polyreactivity
20,QVQLVESGGGLVQAGGRLRLSCDASGRIFTYNAMGWYRQAPGKERELVGAITFSGGGTYYADSVKGRFTISRDNAKNTVYLVMTSLKPEDTAVYYCNQVSFGYSTYGYWGQGTQVTVSS,low polyreactivity
21,QVQLVESGGGLVQAGGRLRLSCDASGSTFVKYAMGWYRQAPGKERELVARISSSGGSTYYADSVKGRFTISRDNAKNTVFLQMNSLKPEDTAVYYCAAPSLIAKYDYWGQGTHVTVSS,high polyreactivity

row,Sequence,polyreactivity (PSR sort gate)
1,QVQLVESGGGLVQAGGRLRLSCVASGSIFSGNAMGWYRQARGKERELVAAITRSGTSTYYADSVKGRFTISRDNAKNTVYLQMNSVKPEDTAVYYCATQYGRQRRAMYYWGQGTQVTVTS,high polyreactivity
2,QVQLVESGGGLVQAGGRLRLSFAASGLTFWWYAMGWYRQAPGKERELVAAIDSADITNYADSVKGRFTISRDNAKNTVYLQMNSLKPEDTAVYYCAAGRDYYVVNYVLFLFDYWGQGTQVTVSS,high polyreactivity
3,QVQLVESGGGLVQAGGRLRLSSAASGFTLVLNAMGWYIPAPGKERELVAAIRRSAGSTYYADSVKGRFTISRDNAKNTVYLQMNRLKPEDTAVYYCAAGFLWAKYAYGHWGQATQVTVSS,low polyreactivity
4,QVQLVESGGGLVQAGGRLRLSSAASGSTFHGYAMGWYRQEPGKERELVAAITSGDSTNYADSVKGRFTISRDNAKKTVYLQMNSLKPEDTAVYDCNAEGSSVLTGYWGYPPYWDTYVYWGQGTQVTVSA,low polyreactivity
5,QVQLVESGGGLVQAGGRLRLSSDASGLTFPTNAMGRYRQAHGKETEFVAAITSRGGTTYYADSVKGRFTISRDNAKNTVYLQMNSLKPEDTAVYYCAALSVTIYQSYRYGYWGQGTQVTVSS,low polyreactivity
6,QVQLVESGGGLVQAGGRLRLTCAASGITFTGNAMGWYRQAPGKERELVAVITSGGSTYYADSVKGRFTISRDNAKNTVYLQMNSLKPEDTAVYYCAAPVYYYYSKAMDYWGQGTQVTVSS,high polyreactivity
7,QVQLVESGGGLVQAGGRLRLTCAASGLTFYSYAMRCYRQAPAKERELVAAISWTGGSTYYADSEKGRFTISRDNAKNTVYLQMNSLKPEDTAVYYCAAVDYWVSGDYYWGQGTQVTVSS,high polyreactivity
8,QVQLVESGGGLVQAGGRLRVSCAASGFTFNCYTMGGSRQAPGKERELVAAITWSGGSTYYADSVKGRFTISRDNAKNSVYLQMNSLIPEDTAVYYCAVYPYGSQYYALDYWGQGTQVTVSS,high polyreactivity
9,QVQLVESGGGLVQAGGRLRVSCAASGSTFAWYAMGWYRQAPGKERELVAAISSGGRTYYADSVKGRFTISRDNAKNTVDLQMNSLKREDTAVFSCNADDWAYGMDYWGQGSQVTVSS,low polyreactivity
10,QVQLVESGGGLVQAGGRLSLSCAASGRTFYRYAMGWYRQAPGKDRELVAAISTRGGTTYYADSVKGRFTFSRDNAKNSVYLQMNSLKPEDTAVYYCAADSVYAEYDSWGQGTQVTVSS,low polyreactivity
11,QVQLVESGGGLVQAGGRLSLSCAASGSIFLYYAMGWYRQAPGKEREFVADISRSGGSTYYADSVKGRFTISRDNAKNTVYLQMNSLKPEDTAVYYCAASFYRYFVSLCYDYWGQGTQVSVSS,high polyreactivity
12,QVQLVESGGGLVQAGGRLSLSCAASGSIFRPNPMGWYRQAPGKERELVAAITWSGDSTYYADSVKGRFTISRDNAKNTVYLKMNSLKPEDTAVYYCAADFTYQGSSANDYWGQGTQVTVSS,low polyreactivity
13,QVQLVESGGGLVQAGGRLSLSCSASGSIFEQKAMGWYRKAPGKEREFVATISDGGGTYYADSVKGRFTISRDNAKNTVYLQINSLKPEDNAVYYCAATFGGSVFVYDYWGQGTQVTLSS,low polyreactivity
14,QVQLVESGGGLVQAGGSFRLSCAASGSIFVVYDMGCYRQAPGKERELVAAITSGGSTYYADSVKGRFTISRDNAKNTVYLQMNSLKPEDTAVYYCAADSYEGYDYWGQGTQVTVSS,low polyreactivity
15,QVQLVESGGGLVQAGGSGRLSCAASGRIFAGYAMGWYIQAPGKERELVAAISSSGGSTYYSDSVKGRFTISRDNAKNSVYLQMNSLKPEDTAVYYCADRGKRNTPQRFYYWGQGTQVTVSS,high polyreactivity
16,QVQLVESGGGLVQAGGSHGLSCAASGRTFYYYAMGWYRPAPGKERELVAAITSGGRTYYADSVKGRFTISRDNAKNTDYLQMNRLKPEDTAVYYCAADLSDPDWSRYQWDMDYWGQGTQVTVSS,low polyreactivity
17,QVQLVESGGGLVQAGGSHPLSCAASGRTFGHNAMRSYRQAPGKERELVAAITRSGGRTFYADSVKGRFTISRDNAMNTVYLQMNSLKPEDTAVFYCATDYYRYRDYAYYWLDYNYWGQGTQVTVSS,high polyreactivity
18,QVQLVESGGGLVQAGGSHRISCAASGRTLPSYAMGWYRQAPGKERELVAAISYSGASTYYADSVKGRFTISRDNAKNTVYLQMNSLKPQDTAVYYCAVYRTFRYRYDSWGQGTQVTVSS,high polyreactivity
19,QVQLVESGGGLVQAGGSHRLRCAASGRIFHVYAMGWYRQAPGKERELVAAISSGDRTYYADSVKGRFIISRDNAKNTVYLQMISLKPEDTAVYYCWRYPADESNYWGQGTQVTVSS,low polyreactivity
20,QVQLVESGGGLVQAGGSHRLRCADSGFTFYSNAMGCYRQAPGKERELVASITWSGGNTYYADSVKGRFTISRDKAKTTVYLQMNSLKPEDTAVYYCAAGYSRDVQGYARAYRFYYWGQGTQVTVSS,high polyreactivity
